In US7612188:

Target: tissue factor (Innovin, Dade) (UniProt P13726)
Chain of UniProt P13726 (P13726 33-295): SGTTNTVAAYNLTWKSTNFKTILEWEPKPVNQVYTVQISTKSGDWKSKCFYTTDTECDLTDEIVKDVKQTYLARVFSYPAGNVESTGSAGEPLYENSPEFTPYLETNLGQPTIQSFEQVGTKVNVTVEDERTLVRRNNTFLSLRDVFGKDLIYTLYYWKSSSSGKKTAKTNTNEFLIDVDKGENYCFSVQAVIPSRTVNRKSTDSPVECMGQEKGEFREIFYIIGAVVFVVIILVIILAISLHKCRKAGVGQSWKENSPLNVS

## Human factor VIIa-T9Q11E33
  competition clotting assay with FFR-VIIa (0 to 3.5 nM) and Innovin, compared with VIIa-Q11E33: Human factor VIIa-T9Q11E33 exhibited a severe loss of competitive binding affinity

## factor VII with leucine for phenylalanine at position 5 and the Q11E33 mutations
  competition clotting assay with active site modified VIIa (0-3.2 nM), compared with the Q11E33 mutant: had much lower activity than the Q11E33 mutant
